For assay [1], the target named is COV2-RBD (rpk9) B.1.1.529 R346K (BA.1.1) (SARS-CoV-2).
The target of assay [2] is SARS-CoV-2 spike (S) glycoprotein, D614G (SARS-CoV-2) (UniProt P0DTC2). The experiment in a line: cell-based or functional assay.

“And” between values parts separate entries of the source, which are not always exact repeats. Equal entries are not always repeated.

In general, EC50 refers to the concentration that produces a half-maximal response.

As to COV2-2130 (antibody), the EC50 in assay [1] was 4.13 µg/mL and 3.54 µg/mL. In assay [2], rS2K146 (antibody) returned a normalized pseudoneutralization IC50 of 0.00656 µg/mL.
